Results on eleven molecules are retold here after patent US20220340657A1 (L AND L BIO CO LTD NINGBO CHINA, published 2022).

As a reminder, the EC50 is the concentration giving half of the maximal effect. A low value points to a more potent agent. As usually defined, the IC50 is the concentration that inhibits the measured activity by half. A high value points to weaker potency in that assay.

One experiment has as its target T1, human PD-1 (hFc/his tag) (human, UniProt Q15116 21-167).
T1 construct: range 21-167; not shown: hFc or his tag
The experiment can be described thus: ELISA on human PD-1. In general terms: In an ELISA, binding on a coated surface is turned into a signal by an enzyme label.

Experiment [1] concerns the target T2, human LAG-3-his (human, UniProt P18627 23-422).
T2 construct: range 23-422; also called hLAG-3-his; hLAG-3
T2 sequence: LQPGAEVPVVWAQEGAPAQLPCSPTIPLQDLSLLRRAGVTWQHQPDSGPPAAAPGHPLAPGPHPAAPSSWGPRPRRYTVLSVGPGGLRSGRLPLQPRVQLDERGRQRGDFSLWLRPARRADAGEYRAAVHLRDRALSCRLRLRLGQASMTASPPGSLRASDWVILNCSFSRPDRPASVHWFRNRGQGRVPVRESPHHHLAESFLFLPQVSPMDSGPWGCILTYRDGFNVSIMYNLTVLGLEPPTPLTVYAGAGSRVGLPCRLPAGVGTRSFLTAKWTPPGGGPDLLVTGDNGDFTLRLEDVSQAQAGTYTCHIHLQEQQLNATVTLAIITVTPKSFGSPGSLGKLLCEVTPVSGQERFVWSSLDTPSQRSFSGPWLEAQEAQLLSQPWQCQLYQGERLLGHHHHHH
The experiment is described as follows: ELISA on human LAG-3.

For experiment [2], the target named is T2, human LAG-3-his. The experiment is described as follows: ELISA on hLAG-3. The method, then: After discarding the liquid, a blocking solution of 5% skimmed milk (Bright skimmed milk powder) diluted with PBS was added at 230 μl per well, followed by incubating at 37° C. for 3 hours or 4° C. overnight (16-18 hours) for blocking. Subsequently, the blocking solution was discarded, and the micropiate was washed 5 times with PBST buffer (pH 7.4 PBS containing 0.05% tweeen-20). Then 50 μl/well of the supernatant (containing the antibody to be tested) or a starting concentration of 10 μg/ml of the antibody to be tested, which was diluted 5 times in gradient, was added, followed by incubating the mixture for 1 hour at 37° C. […] After washing the microplate 5 times with PBST, 50 μl/well TIMB chromogenic substrate (KPL, Cat. No.: 52-00-03) was added, and then incubated for […] at room temperature. Finally, 50 μl/well of 1 M H₂SO₄ was added to stop the reaction. The absorbance value at 450 nm was read by […] GO microplate reader (ThermoFisher, Cat. No.: 51119200). The clones with high affinity were selected according to the OD value or the EC₅₀ value was calculated (for antibodies with known concentrations).

The target in another experiment is T3, bio-LAG3-mFc (human, UniProt P18627 23-450, biotin-labelled).
T3 construct: also called hLAG-3
T3 sequence (looked up): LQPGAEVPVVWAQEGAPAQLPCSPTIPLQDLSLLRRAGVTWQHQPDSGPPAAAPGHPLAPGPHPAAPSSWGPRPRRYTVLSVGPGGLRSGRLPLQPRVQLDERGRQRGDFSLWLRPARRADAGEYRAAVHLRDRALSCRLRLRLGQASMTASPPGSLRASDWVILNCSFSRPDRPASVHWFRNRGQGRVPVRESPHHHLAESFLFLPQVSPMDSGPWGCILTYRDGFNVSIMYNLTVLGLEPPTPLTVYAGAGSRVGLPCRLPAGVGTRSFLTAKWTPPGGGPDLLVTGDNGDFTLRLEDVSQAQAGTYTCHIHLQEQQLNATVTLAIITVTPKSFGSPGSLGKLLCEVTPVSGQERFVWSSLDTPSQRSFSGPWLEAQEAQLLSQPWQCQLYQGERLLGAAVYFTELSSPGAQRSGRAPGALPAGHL
The experiment is described as follows: blocking ELISA, LAG-3 on Daudi cells.

T1 sequence (Q15116 21-167, form in doubt): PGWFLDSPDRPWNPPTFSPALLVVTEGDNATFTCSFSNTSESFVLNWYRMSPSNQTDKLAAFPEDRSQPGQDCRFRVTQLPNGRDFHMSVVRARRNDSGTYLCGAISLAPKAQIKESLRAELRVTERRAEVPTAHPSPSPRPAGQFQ

B1: LB2383 (bispecific antibody, human IgG4 S228P, kappa)
light: EIVLTQSPATLSLSPGERATLSCRASKGVSTSGYSYLHWYQQKPGQAPRLLIYLASYLESGVPARFSGSGSGTDFTLTISSLEPEDFAVYYCQHSRDLPLTFGGGTKVEIKRTVAAPSVFIFPPSDEQLKSGTASVVCLLNNFYPREAKVQWKVDNALQSGNSQESVTEQDSKDSTYSLSSTLTLSKADYEKHKVYACEVTHQGLSSPVTKSFNRGEC
heavy: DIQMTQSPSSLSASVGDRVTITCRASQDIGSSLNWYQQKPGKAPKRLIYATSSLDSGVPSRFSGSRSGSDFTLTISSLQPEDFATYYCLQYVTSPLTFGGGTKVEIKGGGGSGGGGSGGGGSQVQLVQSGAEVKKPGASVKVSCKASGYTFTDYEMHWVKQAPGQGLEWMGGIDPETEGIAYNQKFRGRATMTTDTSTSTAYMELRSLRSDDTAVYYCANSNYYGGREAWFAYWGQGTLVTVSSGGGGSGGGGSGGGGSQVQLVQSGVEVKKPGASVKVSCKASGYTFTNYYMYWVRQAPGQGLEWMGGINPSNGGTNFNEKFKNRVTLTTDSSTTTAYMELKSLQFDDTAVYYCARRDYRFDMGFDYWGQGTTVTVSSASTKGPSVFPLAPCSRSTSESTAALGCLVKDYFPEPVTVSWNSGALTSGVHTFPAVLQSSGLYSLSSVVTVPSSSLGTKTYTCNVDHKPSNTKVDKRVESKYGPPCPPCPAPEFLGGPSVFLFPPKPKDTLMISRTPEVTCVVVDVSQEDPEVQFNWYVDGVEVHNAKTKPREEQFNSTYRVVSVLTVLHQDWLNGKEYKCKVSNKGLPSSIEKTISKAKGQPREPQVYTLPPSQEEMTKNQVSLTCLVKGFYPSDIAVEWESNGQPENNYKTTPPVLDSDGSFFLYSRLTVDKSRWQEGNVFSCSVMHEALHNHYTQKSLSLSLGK
In the case of B1, the EC50 turned out to be 0.138 nM with human PD-1 (hFc/his tag) and 0.237 nM with human LAG-3-his [1].

B2: LB2381 (bispecific antibody, human IgG4 S228P, kappa)
light: DIQMTQSPSSLSASVGDRVTITCRASQDIGSSLNWYQQKPGKAPKRLIYATSSLDSGVPSRFSGSRSGSDFTLTISSLQPEDFATYYCLQYVTSPLTFGGGTKVEIKGGGGSGGGGSGGGGSQVQLVQSGAEVKKPGASVKVSCKASGYTFTDYEMHWVKQAPGQGLEWIGGIDPETEGIAYNQKFRGRATLTADKSTSTAYMELRSLRSDDTAVYYCTNSNYYGGREAWFAYWGQGTLVTVSSGGGGSGGGGSGGGGSEIVLTQSPATLSLSPGERATLSCRASKGVSTSGYSYLHWYQQKPGQAPRLLIYLASYLESGVPARFSGSGSGTDFTLTISSLEPEDFAVYYCQHSRDLPLTFGGGTKVEIKRTVAAPSVFIFPPSDEQLKSGTASVVCLLNNFYPREAKVQWKVDNALQSGNSQESVTEQDSKDSTYSLSSTLTLSKADYEKHKVYACEVTHQGLSSPVTKSFNRGEC
heavy: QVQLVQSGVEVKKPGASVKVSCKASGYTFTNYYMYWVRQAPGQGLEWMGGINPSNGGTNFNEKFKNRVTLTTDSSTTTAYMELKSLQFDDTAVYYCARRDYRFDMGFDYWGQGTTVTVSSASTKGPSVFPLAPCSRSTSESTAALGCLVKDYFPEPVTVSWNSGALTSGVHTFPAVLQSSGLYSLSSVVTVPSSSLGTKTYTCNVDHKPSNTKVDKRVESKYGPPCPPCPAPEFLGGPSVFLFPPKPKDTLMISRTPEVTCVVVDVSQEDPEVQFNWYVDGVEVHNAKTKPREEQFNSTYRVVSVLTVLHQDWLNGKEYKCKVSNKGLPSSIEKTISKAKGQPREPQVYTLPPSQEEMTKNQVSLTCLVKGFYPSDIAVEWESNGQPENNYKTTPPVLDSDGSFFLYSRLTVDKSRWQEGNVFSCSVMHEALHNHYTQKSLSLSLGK
As to B2, the EC50 came out at 0.332 nM with human PD-1 (hFc/his tag) and 0.79 nM in the experiment with human LAG-3-his [1].

B3: LB2382 (bispecific antibody, human IgG4 S228P, kappa)
light: EIVLTQSPATLSLSPGERATLSCRASKGVSTSGYSYLHWYQQKPGQAPRLLIYLASYLESGVPARFSGSGSGTDFTLTISSLEPEDFAVYYCQHSRDLPLTFGGGTKVEIKRTVAAPSVFIFPPSDEQLKSGTASVVCLLNNFYPREAKVQWKVDNALQSGNSQESVTEQDSKDSTYSLSSTLTLSKADYEKHKVYACEVTHQGLSSPVTKSFNRGECGGGGSGGGGSGGGGSQVQLVQSGAEVKKPGASVKVSCKASGYTFTDYEMHWVKQAPGQGLEWIGGIDPETEGIAYNQKFRGRATLTADKSTSTAYMELRSLRSDDTAVYYCTNSNYYGGREAWFAYWGQGTLVTVSSGGGGSGGGGSGGGGSDIQMTQSPSSLSASVGDRVTITCRASQDIGSSLNWYQQKPGKAPKRLIYATSSLDSGVPSRFSGSRSGSDFTLTISSLQPEDFATYYCLQYVTSPLTFGGGTKVEIK
heavy: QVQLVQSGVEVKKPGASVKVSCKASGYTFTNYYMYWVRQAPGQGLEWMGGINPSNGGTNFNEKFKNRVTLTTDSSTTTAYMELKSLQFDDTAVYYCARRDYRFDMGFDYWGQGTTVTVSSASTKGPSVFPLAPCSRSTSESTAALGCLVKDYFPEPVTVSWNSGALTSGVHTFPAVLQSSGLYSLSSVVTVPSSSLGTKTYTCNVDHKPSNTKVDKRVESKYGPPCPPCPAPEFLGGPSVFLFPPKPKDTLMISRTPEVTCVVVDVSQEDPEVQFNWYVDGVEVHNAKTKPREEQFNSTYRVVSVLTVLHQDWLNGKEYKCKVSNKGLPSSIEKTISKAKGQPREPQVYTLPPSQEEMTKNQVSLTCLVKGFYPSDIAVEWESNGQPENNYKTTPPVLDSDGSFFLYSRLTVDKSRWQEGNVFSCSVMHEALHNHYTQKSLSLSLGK
Consider B3, for which the EC50 with human PD-1 (hFc/his tag) was determined as 0.309 nM; in the experiment with human LAG-3-his [1] it was 0.951 nM.

B4: Ab2315 (antibody, human IgG4 S228P, kappa, V domains shown)
VH: QVQLVQSGAEVKKPGASVKVSCKASGYTFTDYEMHWVKQAPGQGLEWIGGIDPETEGIAYNQKFRGRATLTADKSTSTAYMELRSLRSDDTAVYYCTNSNYYGGREAWFAYWGQGTLVTVSS
VL: DIQMTQSPSSLSASVGDRVTITCRASQDIGSSLNWLQQKPGKAIKRLIYATSSLDSGVPSRFSGSGSGTDYTLTISSLQPEDFATYYCLQYVTSPLTFGGGTKVEIKR
notes: LG2315 / LG2343, human kappa / hIgG4
The molecule B4 displayed an EC50 in the experiment with human LAG-3-his [2] of 0.181 nM. Also, the IC50 with bio-LAG3-mFc was found to be 2.18 nM.

B5: Ab2314 (antibody, human IgG4 S228P, kappa, V domains shown)
VH: QVQLVQSGAEVKKPGASVKVSCKASGYTFTDYEMHWVKQAPGQGLEWIGGIDPETEGIAYNQKFRGRATLTADKSTSTAYMELRSLRSDDTAVYYCTNSNYYGGREAWFAYWGQGTLVTVSS
VL: DIQMTQSPSSLSASVGDRVTITCRASQDIGSSLNWLQQKPGKAIKRLIYATSSLDSGVPSRFSGSRSGSDYTLTISSLQPEDFATYYCLQYVTSPLTFGGGTKVEIKR
notes: human kappa / hIgG4
The molecule B5 came in with an EC50 with human LAG-3-his [2] of 0.237 nM. This molecule gave a half-inhibitory concentration (IC50) in the experiment with bio-LAG3-mFc of 1.22 nM.

B6: Ab2313 (antibody, human IgG4 S228P, kappa, V domains shown)
VH: QVQLVQSGAEVKKPGASVKVSCKASGYTFTDYEMHWVKQAPGQGLEWIGGIDPETEGIAYNQKFRGRATLTADKSTSTAYMELRSLRSDDTAVYYCTNSNYYGGREAWFAYWGQGTLVTVSS
VL: DIQMIQSPSSLSASVGDRVTITCRASQDIGSSLNWLQQKPGGAIKRLIYATSSLDSGVPSRFSGSRSGSDYSLTISSLQPEDFATYYCLQYVTSPLTFGGGTKVEIKR
notes: human kappa / hIgG4
In the experiment with human LAG-3-his [2], B6 had an EC50 of 0.221 nM. The same molecule displayed an IC50 with bio-LAG3-mFc of 3.22 nM.

B7: Ab2316 (antibody, human IgG4 S228P, kappa, V domains shown)
VH: QVQLVQSGAEVKKPGASVKVSCKASGYTFTDYEMHWVKQAPGQGLEWIGGIDPETEGIAYNQKFRGRATLTADKSTSTAYMELRSLRSDDTAVYYCTNSNYYGGREAWFAYWGQGTLVTVSS
VL: DIQMTQSPSSLSASVGDRVTITCRASQDIGSSLNWLQQKPGKAIKRLIYATSSLDSGVPSRFSGSRSGSDFTLTISSLQPEDFATYYCLQYVTSPLTFGGGTKVEIKR
notes: human kappa / hIgG4
On to B7, for which the EC50 with human LAG-3-his [2] is 0.307 nM. In the experiment with bio-LAG3-mFc, the midpoint of inhibition, the IC50, lay at 1.5 nM.

B8: Ab2318 (antibody, human IgG4 S228P, kappa, V domains shown)
VH: QVQLVQSGAEVKKPGASVKVSCKASGYTFTDYEMHWVKQAPGQGLEWIGGIDPETEGIAYNQKFRGRATLTADKSTSTAYMELRSLRSDDTAVYYCTNSNYYGGREAWFAYWGQGTLVTVSS
VL: DIQMTQSPSSLSASVGDRVTITCRASQDIGSSLNWLQQKPGKAIKRLIYATSSLDSGVPSRFSGSRSGTDFTLTISSLQPEDFATYYCLQYVTSPLTFGGGTKVEIKR
notes: human kappa / hIgG4
For the molecule B8, the EC50 with human LAG-3-his [2] was 0.28 nM. The molecule further had an IC50 in the experiment with bio-LAG3-mFc of 0.86 nM.

B9: Ab2319 (antibody, human IgG4 S228P, kappa, V domains shown)
VH: QVQLVQSGAEVKKPGASVKVSCKASGYTFTDYEMHWVKQAPGQGLEWIGGIDPETEGIAYNQKFRGRATMTTDKSTSTAYMELRSLRSDDTAVYYCTNSNYYGGREAWFAYWGQGTLVTVSS
VL: DIQMTQSPSSLSASVGDRVTITCRASQDIGSSLNWLQQKPGKAIKRLIYATSSLDSGVPSRFSGSRSGSDYTLTISSLQPEDFATYYCLQYVTSPLTFGGGTKVEIKR
notes: human kappa / hIgG4
Molecule B9 came in with a concentration giving a half-maximal response (EC50) with human LAG-3-his [2] of 0.764 nM. This molecule also showed an IC50 with bio-LAG3-mFc of 1.85 nM.

B10: Ab2322 (antibody, human IgG4 S228P, kappa, V domains shown)
VH: QVQLVQSGAEVKKPGASVKVSCKASGYTFTDYEMHWVKQAPGQGLEWIGGIDPETEGIAYNQKFRGRATMTTDTSTSTAYMELRSLRSDDTAVYYCTNSNYYGGREAWFAYWGQGTLVTVSS
VL: DIQMTQSPSSLSASVGDRVTITCRASQDIGSSLNWYQQKPGKAPKRLIYATSSLDSGVPSRFSGSRSGSDFTLTISSLQPEDFATYYCLQYVTSPLTFGGGTKVEIKR
notes: human kappa / hIgG4
Molecule B10 yielded an EC50 with human LAG-3-his [2] of 0.131 nM. The molecule also gave an IC50 with bio-LAG3-mFc of 2.32 nM.

B11: Ab2320 (antibody, human IgG4 S228P, kappa, V domains shown)
VH: QVQLVQSGAEVKKPGASVKVSCKASGYTFTDYEMHWVKQAPGQGLEWIGGIDPETEGIAYNQKFRGRATMTTDKSTSTAYMELRSLRSDDTAVYYCTNSNYYGGREAWFAYWGQGTLVTVSS
VL: DIQMTQSPSSLSASVGDRVTITCRASQDIGSSLNWLQQKPGKAIKRLIYATSSLDSGVPSRFSGSGSGTDYTLTISSLQPEDFATYYCLQYVTSPLTFGGGTKVEIKR
notes: human kappa / hIgG4
For the molecule B11, a half-maximal response with human LAG-3-his [2] (EC50) required 1.01 nM. In the experiment with bio-LAG3-mFc, this molecule came in with a half-inhibitory concentration (IC50) of 1.32 nM.
